According to patent US20260193376A1:

Biological target: human plasma-derived Factor IXa (human) (UniProt P00740)
Assay: cell-based or functional assay

Chain of human plasma-derived Factor IXa (human) (P00740 47-191, chain 1 of 2): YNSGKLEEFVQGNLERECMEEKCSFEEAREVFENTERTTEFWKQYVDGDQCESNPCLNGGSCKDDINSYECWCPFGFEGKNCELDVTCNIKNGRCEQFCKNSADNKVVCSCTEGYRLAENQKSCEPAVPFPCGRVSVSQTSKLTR
Chain of human plasma-derived Factor IXa (human) (P00740 227-461, chain 2 of 2): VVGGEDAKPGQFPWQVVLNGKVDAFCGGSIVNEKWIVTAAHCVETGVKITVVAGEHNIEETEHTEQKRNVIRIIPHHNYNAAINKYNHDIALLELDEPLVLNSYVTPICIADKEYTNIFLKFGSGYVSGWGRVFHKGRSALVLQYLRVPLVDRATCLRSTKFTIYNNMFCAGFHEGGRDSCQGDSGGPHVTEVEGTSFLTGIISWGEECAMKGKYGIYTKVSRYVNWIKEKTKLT

Stimulation Index, FXa generation assay, 3260 nM OA antibody: < 10 fold
B1: one-armed (OA) 224F3 antibody (antibody, from another filing, V domains shown)
VH: QVQMQQSGAELVKPGASVKLSCKASGYTFTSQDINWVRQRPEQGLEWIGWIFPGDGSTKYNEKLKGKATLTTDKSSSTAFMQLSRLTSEDSAVYFCARSAYYRYDGSYYYAMDYWGQGTSVTVSS
VL: QIVLTQSPAIMSASLGEEITLTCSASSSVSYMLWYQQKSGTSPKLLIYTTSNLASGVPSRFSGTGSGTFYSLTISSVEAEDAADYYCHQWSSYPRTFGGGTKLEIKR
